Test results from the NTF2 design screens of Basanta et al. (2020).

Test: protease stability score; higher = more stable; yeast display proteolysis, trypsin and chymotrypsin;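 also: relative to predicted unfolded state with 0 unfolded-like and 1 meaning tenfold more protease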

First: DEIEHHDRIIHHLTLHAFFTGDESITEHLADPDVRLDIVQGDKFNHVIGREMVVQWLEEWWRRVKNARFRVHRVEVINGQVNLRVEVDINGKRVDFTLIIIVIDGKIRSQEVIFH
Second: IEQKEAWDEVYRIFVEAVRTGDWKSFERLLDPHTRIHFENREFHGREALEHDREKYKNMKLEHIEIKDQRVQGDKVIQFSHVVGNIDGRRLRFDIEIQFSKVDGVWTIELVIVR
The protease stability score of the first is higher: 1.67 for the first, 1.52 for the second.

First: DEEDKHLQEMVEKLVKNWLTGDWDKLRELLDPNTKSNIGEYTSIGWEKDAEAFEKLIHELGIKHMNFLIRRIHVVDGRAHSDVEIELEVDGRNTEVKTHLIVVIINGRVKSITVEYK
Second: EEEHELTELLSRLWVHAIRTGDEDTLKELMDPNTRFEINGKEHIGRERLTDAFRELRVHRLHIEHIEIQGDKVLMETRSDIEINGVRRETETRIILHVVNGRIKEVRVHIK
The protease stability score of the first is lower: 0.297 for the first, 1.84 for the second.

First: DEDEELALKMLEQWLRDLLTGDEETMVDLLDPNARLEIGDKENHGRDEVRKFWEELKKRFKNVRMEIEVHEIRVIGNKVHSINTLIIIIGDKRIKHHIHVHVVIFNGRVHSVHISIH
Second: HEDKKSLEDFLELLLHAIATGDEEILRHLLDPNVRLDIDGRHVVGREELLRWFREIRVKRSDIRIDHFHVQGDKIHADVTDLYDGEFNGKRHLMVLKTELILVKFNGRWHIRTMHFH
The protease stability score of the first is lower: 1.35 for the first, 2.23 for the second.

Compared with “DETRRHTEELFHWLLRAFMTGDFKLSYDNADPDVRFIINGRRDHGRDLYVRDLRHMRVHDSKVNHIHFEFQGDWAVVRVDGHIFGEYDGQHFNLRVEIRIIINKIDGRWSLESVEIRIH”, “DSEHEEAKTFVKELDKSIETGDEEKLKELLDPHTLIIVGDKFRIGWEWMANKISQIRIHMETRIRDVEHQGDKMIVHTDVRIDINVDGKKIHEQRDIHLIIRKVNGQWILKEIEIR” is higher in protease stability score: 0.812 for the first, 1.36 for the second.

First: DERSRNLEHYAKDLVEDWLTGDFRRYSKLADPNALTIFNGVELHGRELVIRMMNELRHRIDHLEIRIEDSHIQGNKVKIDSHRIMNVNGVEYRTKTEEWFDIVDGRVKSVEIRVH
Second: SEEHEHIRRVWEEIRRVLETGDEEALMRMIDPNVRIRNVQGDKELDIHGRESVVRRILKIFQEIWFDFEDRHIDIQGDKLHIEGHLILRVNGREHRLDVREVWVVVNGVIHTVEFMVE
The protease stability score of the first is lower: 0.426 for the first, 1.29 for the second.

First: TEHHERHIKLMRKIIEALLTGDEEILRKLMDPDVRWEQGDKTVIGMEAVIKFLKDVSRHIRIKDIKIERQTDINGRMFTEGHLHIQYGDKEDTQEVHIELDVINGRIKSFHVEYR
Second: DEEEHEIRQAIELEIRLIETGDFKAMRKMADPHVRTHINIGDKRLDLHGRDFFEWWLRFVKGVTHRFEDFVSVGNKVHIIVQDQVGDKRYEVKIVFKKVDGRWRMTESEVHFE
The protease stability score of the first is lower: 1.65 for the first, 1.83 for the second.

Going from “DEEEERVIHIMHLFLEHISTGDEDKVKHLMDPNVRVFIGNKQHVGMHEIIKHLREWRIELDDVRTEEVRIQGDKLHLNGRLHVTLEFNGRRIRTTVRTTNIFRKVDGRWILEAIHID” to “SEEKEHHHQLARDILEMLRTGNEEIWHRLLDPHVKLNIDGKEYHGREDVRQMLRDHLEKIKGIKLHVTDVKDFDGKVYVHGRWHVGNFTVDILTIYTFIDGRVHTMSEETR”, the protease stability score falls from 1.58 to 1.41.

Compared with “DEDHEVFKRINDLFHESLETGDERVLERLMDPNTRIEYGDKRVHGREELLRHMREMGIDHFNVEDTTVINGVAMLDVSIVVNGKVFKLEFYVNKVNGQWHLEHVEIREI”, “SEDESAARHVIERMSHNLMTGDEEDLSDQFDPHVRVDINGVEIIGREELLRWLREWLRHAGVSKFNVHIIPREIRLIGDFMEINGELRMNYNGKEERTETRIIVFKFNGKWSIERMRIH” is higher in protease stability score: 0.661 for the first, 1.72 for the second.

First: DEDHERTKLFSKLFLKWTHTGDWEKILENADPNVRMHIGDKNFHGMHEVWRFLHEHLEKLGADVHSLTDLKIEAYNGVVVVHVEGTENINGRDITSRLHLIVIKVDGRWIIREIRVTIS
Second: DEDRESFEEVSRLLMEDIKTGDEDSWKKLADPHDRIVVGDKTSIGMETSIHLLRVLIHHIRFKDSKIKDIHSQGDKLHLETHLHGEVNGVEYHTFSHIVVRKVDGKWHLESVIII
The protease stability score of the first is higher: 1.29 for the first, 1 for the second.

Going from “DEEVAKKMMEAWMKALQNGNDEQMKKLYDPTVRWEDGNTEKQGLEVVVKLVQTVKKKGIEFQVRKAKVKGNQVEVHYDMKVGDDTVTFTVQFRAQGGRIQEVRVEISEEARKAVKKG” to “DDDERDMDLALELIIRTIRTGDWELQSRLIDPHARLHIDGRDLHGMEEYVTILVEHWRRIKGVKVSITLHDRDVFDGVLHLDTEVELDFNGVRLHMKTEIISLKYNGRWFIKEIRVR”, the protease stability score falls from 1.32 to 0.654.

“SDEEERLRDFVRRYMESMRTGDEDTWRTMLDPNVQVTINGRWEIGRESAYEFLWTVFTHLGVDHLELDHFHLYGEKIELDLTAFVNGQTKKVRVELIVIDGKLKSEKIHDK” and “DESMTEAKQILETLNKSLNTGDERLDKELFDPRAKLEFDGREIHGRELILTWLSEWRIEIKDFRIEDIEFQGNKVKMHTRIDMTVDFNGRRIKIDTTMHHDVIKVNGRWLIQRQIIP” are the same in protease stability score: 1.12 for the first, 1.12 for the second.

First: SEDEQDAHKWLQLFIDFLKTGDEELMEKFLDPTVRSRVGDKETHGREMLVLHLLFLGVDHIHFRHVEERVYNGRVLLIITILIRVGDKHVETEIRVEIDKINGRWLAETIHIRIR
Second: DEDEELARRHLKRLMEIWNTGDEDSHRHLADPHMRYIYNGKQTHGRQVSAKILLEMRIDHLEIKRMHLVDGKLEIDGRMEGEVNGRKDTVEVIIHNEKVNGRWIIRELQFG
The protease stability score of the first is higher: 0.778 for the first, 0.503 for the second.

Going from “DHREEHDHEISELMREALLTGDEQLISHLADPNVRFEVFVGDKVIRWVGRESMMEAFERWVREIRIEDLKVKHVDIFNGRVDVVTTLHVEFDGRKHDLETRLIFEVVDGKVKHLQVHHH” to “SEDEEAAHRFLQMFLSTSHTGDEKESRELADPHVRIDIDGQKHHGRHEWVKVFRHLRIHNIEIKDYHVIDGRLRLDYKVDLEVGDKKIEHRLHIDVEKIDGRWEIQRVHLI”, the protease stability score rises from 1.36 to 1.58.

Compared with “DEEHNHFERLTRWFEHVWRTGNEEFFRELADPNARMRINGQEYVGREELVRTLHEWLKILGAKHHRKKDEEIQGEKVILIGEVDIDGRTLRHHVHFRIINGRLHSLEVEVK”, “DEEREIIETFFRESLEVIKTGDWKTFDDLLDPRARLNIGDKDYHGRHEIVRQWHKQFKDLGVDHIENKDLRIFDGKIETHFDLEVGDKRIHLEFHATKIDGRWLFHEIRVQ” is higher in protease stability score: 1.3 for the first, 1.97 for the second.

Going from “SEMEHNLLEFIEHLLRNWRTGDEDREHELADPHYRIDVNGVELHGMEYLLEMFRRLGIDHMEFELKRSTVVGDFAIVDGNLQFHVDGKWERRKVKMVNKKVDGRWHHTQFSVN” to “TEHEEISHRLMELLKEALQTGDEEHIRDLADPHVRVIVNGKNIHGREEVHMWLLILNTKFKGLTLRVHHVDIQGEKIILDTRIHVNGRSTTSHVELYVVDGVLKRAHLHIE”, the protease stability score falls from 1.5 to 1.45.

First: SEEEEHTRHMYELFWRILHTGDEKSFHELADPNVLLRVGDKNFHGREEAERFLHEYWERYKNMRIEMKTFDFQGNKVHSEGVININGVKIRSELELVVFDGRLHSVIVRHR
Second: DDKDQHEEVEKFARNVVSGNSDELRKQMDKDVRANVGDKTLRGREEVADFWKHMRDRIDHAEIKEIRFHNGEARIVMQFVHNGRTKQINIVMEFHDGHVKRLRVEDG
The protease stability score of the first is lower: 2.43 for the first, 2.58 for the second.

First: DEDEERNEHFLRLYEKITTTGDEDIAKELIDPNARLHVNGKDIHGRESVVKWLKELRIHHLKLRHFRIVGEKAENDISYDVEVDGRTNRRDVHIYLLKIDGRWVIHSIEVR
Second: NEDEEEARRWLEFFIKLYETGDEHMLEKMIDPDTRSYIDGKEFVGREEIRKLLRHLRIEHIHVKRFRAVNGKIDFDTHIVGEFNGRRKNTDVHIRATKIDGQWYLHEVDWK
The protease stability score of the first is higher: 1.84 for the first, 1.64 for the second.

Going from “DQLDKSMKESMTRALEHWETGNERSLENLLDPNTKVVVNGVIVHGWERMSELIHDFWRRLGIDHVEIEDIHNHIQGDKAVLNNKTVINVNGQEIKTTLIIYITKVNGRWTIHSIEIHIH” to “SETDELLRQLAEFHRETLETGDFHTLWHLLDPHVRLDYNGQKMHGREHFARFWLELLTELRIHFRVRDIRTQGNKAHNRGEIIIHYDGRLRIIDSEIEIIVVNGKVTEVRHTIN”, the protease stability score falls from 1.72 to 0.837.
